How the values were obtained:
recombinant human αvβ8 = biological target: T1, recombinant human αvβ8 (human, UniProt P06756 31-992; P26012 43-684); experiment: ELISA on coated recombinant integrin
T1 construct: Bought from R&D Systems
Description: 96-well Maxisorb plates (Nunc) were coated overnight at 4° C. with 1 ug/ml of recombinant human αvβ1, αvβ3, αvβ5, αvβ6 and αvβ8 (R&D Systems, MN) diluted in 50 mM carbonate buffer (Sigma, MO). Plates were washed with PBS+0.05% Tween 20 (PBS-T). Wash buffer was removed and plates were blocked for 2 hours at room temperature in TBS blocking buffer (TBS, 0.05% Tween 20, 1% BSA). Plates were washed and then incubated for 2 hours with humanized 2A2 antibody diluted in TBS binding buffer (TBS, 0.05% Tween 20, 1% BSA, 1 mM MnCl₂) at concentrations that ranged from 1 pM-67 nM (10 ug/ml). Plates were washed, incubated for 1 hour with 1:5000 dilution of anti-human Fc-HRP (Jackson ImmunoResearch, PA), washed, and then incubated with TMB substrate for 5 minutes. The reaction was stopped with 1 M HCl. Absorbance at 450 nm was read using a Fusion HT plate reader (Perkin Elmer, Waltham, MA).

[1] = biological target: T2, human αvβ6 on 293F:huβ6 cells (human, UniProt P06756 31-1048; P18564 22-788); experiment: saturation binding on 293F cells; AF647-labeled
T2 chain 1: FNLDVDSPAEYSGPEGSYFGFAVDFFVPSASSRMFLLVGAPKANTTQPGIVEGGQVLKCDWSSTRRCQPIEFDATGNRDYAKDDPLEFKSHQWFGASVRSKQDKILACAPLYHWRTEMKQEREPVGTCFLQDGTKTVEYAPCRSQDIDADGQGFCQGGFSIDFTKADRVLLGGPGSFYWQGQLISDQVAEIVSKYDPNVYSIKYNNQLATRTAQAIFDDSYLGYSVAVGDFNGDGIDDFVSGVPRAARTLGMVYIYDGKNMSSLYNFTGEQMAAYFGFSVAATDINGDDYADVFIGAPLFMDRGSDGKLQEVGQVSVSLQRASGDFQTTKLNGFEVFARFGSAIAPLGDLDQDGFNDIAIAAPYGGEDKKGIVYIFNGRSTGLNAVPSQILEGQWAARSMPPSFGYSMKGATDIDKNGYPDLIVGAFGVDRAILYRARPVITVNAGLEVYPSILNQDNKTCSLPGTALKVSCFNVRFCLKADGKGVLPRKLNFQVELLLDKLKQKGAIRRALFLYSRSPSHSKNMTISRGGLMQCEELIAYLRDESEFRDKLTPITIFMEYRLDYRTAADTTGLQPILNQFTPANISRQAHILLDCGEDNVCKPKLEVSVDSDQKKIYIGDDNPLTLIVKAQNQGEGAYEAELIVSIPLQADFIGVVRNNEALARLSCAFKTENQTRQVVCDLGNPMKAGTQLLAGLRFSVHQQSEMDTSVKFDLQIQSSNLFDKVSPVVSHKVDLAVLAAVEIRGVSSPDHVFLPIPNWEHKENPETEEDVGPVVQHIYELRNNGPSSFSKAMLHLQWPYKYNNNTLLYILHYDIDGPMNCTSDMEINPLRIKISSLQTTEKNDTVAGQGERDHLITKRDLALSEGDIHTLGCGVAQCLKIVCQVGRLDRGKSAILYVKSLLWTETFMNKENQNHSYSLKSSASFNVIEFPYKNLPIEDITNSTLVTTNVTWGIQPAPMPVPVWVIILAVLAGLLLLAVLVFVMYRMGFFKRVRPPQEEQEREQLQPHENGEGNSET
T2 chain 2: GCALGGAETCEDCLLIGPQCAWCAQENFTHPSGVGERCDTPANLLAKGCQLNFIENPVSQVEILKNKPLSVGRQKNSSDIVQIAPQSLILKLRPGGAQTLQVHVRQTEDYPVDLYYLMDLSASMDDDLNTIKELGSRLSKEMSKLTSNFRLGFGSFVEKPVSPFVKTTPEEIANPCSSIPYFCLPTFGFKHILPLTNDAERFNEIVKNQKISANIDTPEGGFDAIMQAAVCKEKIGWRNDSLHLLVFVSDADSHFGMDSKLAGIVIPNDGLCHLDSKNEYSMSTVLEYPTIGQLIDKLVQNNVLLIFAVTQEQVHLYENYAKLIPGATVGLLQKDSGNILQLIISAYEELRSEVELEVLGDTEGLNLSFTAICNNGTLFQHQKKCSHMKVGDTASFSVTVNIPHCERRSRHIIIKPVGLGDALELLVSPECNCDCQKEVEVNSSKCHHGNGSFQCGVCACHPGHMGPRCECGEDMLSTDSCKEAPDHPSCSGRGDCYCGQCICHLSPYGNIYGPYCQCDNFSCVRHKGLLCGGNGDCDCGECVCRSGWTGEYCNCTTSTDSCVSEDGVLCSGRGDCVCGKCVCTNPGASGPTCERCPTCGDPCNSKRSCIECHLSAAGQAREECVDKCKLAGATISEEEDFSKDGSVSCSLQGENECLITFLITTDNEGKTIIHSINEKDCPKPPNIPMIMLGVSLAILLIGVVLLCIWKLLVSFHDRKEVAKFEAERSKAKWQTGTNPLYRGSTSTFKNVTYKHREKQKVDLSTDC

[2] = biological target: T3, human αvβ6 on 293F:huβ6 cells (human, UniProt P06756 31-1048; P18564 22-788); experiment: saturation binding by flow cytometry on 293F:huβ6 cells; also confirmed by competition binding
T3 construct: whole, on cells; also called HEK293F:huβ6
Description: 0.1×10⁶ antigen expressing cells were aliquoted in each well of a 96-well v-bottom plate on ice. The cells were incubated for 1 hour with 2 nM AlexaFluor-647 labeled humanized 2A2 HCLG and increasing concentrations (from 4 pM-1 uM) of unlabeled humanized 2A2 HCLG antibody and h2A2-Mdpr-PEG(12)-gluc-MMAE(8) in buffer (Tris-buffered saline, 2% fetal bovine serum, 0.5 mM MnCl₂, 0.02% NaN₃). Cells were pelleted and washed 3 times with TBS/FBS. The cells were pelleted and resuspended in 125 uL of TBS/FBS. Fluorescent signal of binding was detected using a Becton Dickinson Biosciences LSR II (San Jose, CA). Percent of saturated fluorescent signal was used to determine percent labeled humanized 2A2 antibody bound to cells and to subsequently extrapolate the EC50 by fitting the data to a sigmoidal dose-response curve with variable slope using GraphPad Software (LaJolla, CA).
0.1×10⁶ antigen expressing cells were aliquoted per well into a 96-well v-bottom plate. m2A2 and h2A2 HCLG were directly labeled with AlexaFluor-647 and added to cells at concentrations ranging from 6 pM-340 nM in buffer (Tris-buffered saline, 2% fetal bovine serum, 0.5 mM MnCl₂, 0.02% NaN₃). […] Fluorescent signal of binding was detected using a Becton Dickinson Biosciences LSR II (San Jose, CA). The EC50 was calculated using GraphPad Software (LaJolla, CA).

T1 sequence (P26012 43-684 limits assumed, one chain of several): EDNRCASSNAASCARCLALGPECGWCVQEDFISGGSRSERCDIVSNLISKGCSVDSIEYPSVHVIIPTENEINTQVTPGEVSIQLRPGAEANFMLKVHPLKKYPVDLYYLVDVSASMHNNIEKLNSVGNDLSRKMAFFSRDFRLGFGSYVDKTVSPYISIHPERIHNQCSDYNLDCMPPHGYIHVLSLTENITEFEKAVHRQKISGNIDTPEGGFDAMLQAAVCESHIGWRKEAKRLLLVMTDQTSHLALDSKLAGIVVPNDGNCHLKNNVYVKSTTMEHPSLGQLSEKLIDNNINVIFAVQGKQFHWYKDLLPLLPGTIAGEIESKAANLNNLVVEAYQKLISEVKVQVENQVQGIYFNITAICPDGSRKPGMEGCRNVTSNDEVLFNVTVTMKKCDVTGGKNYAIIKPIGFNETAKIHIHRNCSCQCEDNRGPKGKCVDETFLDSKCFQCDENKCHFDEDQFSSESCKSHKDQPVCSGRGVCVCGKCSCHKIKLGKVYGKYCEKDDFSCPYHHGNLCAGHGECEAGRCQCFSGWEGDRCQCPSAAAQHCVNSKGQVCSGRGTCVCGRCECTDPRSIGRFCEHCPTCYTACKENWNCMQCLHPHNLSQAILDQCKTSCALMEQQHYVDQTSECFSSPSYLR

B1: h2A2 HCLG humanized antibody (antibody, human IgG1, kappa, V domains shown)
VH: QFQLVQSGAEVKKPGASVKVSCKASGYSFTDYNVNWVRQAPGQGLEWIGVINPKYGTTRYNQKFKGRATLTVDKSTSTAYMELSSLRSEDTAVYYCTRGLNAWDYWGQGTLVTVSS
VL: DIQMTQSPSSLSASVGDRVTITCGASENIYGALNWYQQKPGKAPKLLIYGATNLEDGVPSRFSGSGSGRDYTFTISSLQPEDIATYYCQNVLTTPYTFGQGTKLEIKR
notes: Labelled with AlexaFluor-647 in the saturation assay; also called humanized 2A2 HCLG
- binding result (recombinant human αvβ8): no binding (tested: 1 pM-67 nM (10 ug/ml))
- EC50 [1]: 0.3 nM
- binding result [2]: binds

Reference: patent US20250242041A1 (Seagen, published 2025)
